Results from patent US20200316211A1, “LOCALLY ACTING TOLL-LIKE RECEPTOR 7 (TLR7) AND/OR TLR8 AGONIST IMMUNOTHERAPY COMPOUNDS AND THEIR USES” (Altimmune UK Limited, priority 2019, published 2020).
Where a SMILES comes first, the peptide text is derived from it. Where no end group is shown, it is not given here. Side-chain parts run from the residue outwards. The star is where a group is joined. X1 = CCCCc1nc2c(N)nc3ccccc3c2n1Cc1ccc(CNC(=O)COCC(=O)*)cc1; Palmitoyl = CCCCCCCCCCCCCCCC(=O)*; PEG3 = NCCOCCOCCOCCC(=O)O; ADJ12 = not defined here

What was measured:
[1] = intratumoral, very low doses (0.005 to 0.055 mg); cited from earlier work
[2] = Change in body weight in the CT26 study (systemic toxicity); type: in vivo, BALB/c mice; conditions: 100 nmol/dose/animal intratumoral, day 1, 3, 5; body weight minus tumor weight; FIG. 11
Description: (§1) Six to eight-week-old female BALB/c mice (Charles River) were injected subcutaneously with 2×10^5 CT26 cells on the right flank. When the tumors reached an average volume of ˜150 mm^3, mice were randomized into seven groups of eight mice per group, approximately 10 days (13 days) post tumor cell grafting, referred as day 0. After randomization, tumor size and body weight were assessed three times a week for the duration of the study. Animals were sacrificed according to the following humane endpoints: tumor volume ≥2000 mm^3, presence of necrotic or ulcerated tumor, impaired mobility including transient prostration or hunched posture, or interference with a vital physiological function. Treatments were initiated on day 1. All animals from group 1 to group 6 received three intratumoral injections of either formulated or non-formulated small molecule TLR7/8 agonists, or vehicle control, once every two days, on day 1, day 3 and day 5, in 50 μl delivery dose. Mice of group 7 were untreated. Animals from group 1 to group 4 were respectively treated with 100 nmol/dose/animal of kHL-12 or pHL-12 both prepared in 28 mM L-Histidine/Mannitol dilution buffer, or 3M-052 (MedChemExpress, teltralimod Cat. No.: HY-109104) prepared in ethanol/sesame oil (1:10), or R848 (Invivogen, R848 VacciGrade™, Cat. Code vac-r848) reconstituted in 28 mM L-Histidine/Mannitol dilution buffer. Mice from group 5 and group 6 received control vehicles in the delivery dose of 50 μl, 28 mM L-Histidine/Mannitol dilution buffer and ethanol/sesame oil (1:10), respectively.
(§2) Body weight was normalized by subtracting the weight of the tumor to the overall body weight.

[3] = poloxamer 407 thermogel formulation, intratumoral, animal models; cited from earlier work
CT26 cells = experiment: Antitumor activity after intratumoral injection, CT26 right flank model; type: in vivo, BALB/c mice; conditions: 100 nmol/dose/animal intratumoral, day 1, 3, 5; FIG. 10
Description: as §1, §2

[4] = Appearance (visual) and solubility (RP-HPLC of supernatant) in different buffer conditions; type: physicochemical; conditions: for Solubility/appearance across buffer conditions: change in pH and/or presence of sodium chloride; for HPLC solubility: peak area vs same compound in 10% acetic acid
Description: The solubility of peptide conjugates KK-12, HH-12, AH-12 and HL-12 was determined by visual inspection of the solution and by RP-HPLC. Twenty (20) minutes after dispersion of the peptide conjugates in different buffer conditions, the solutions were centrifuged for 10 minutes and the supernatant analyzed by RP-HPLC. The peak area of each peptide conjugate was compared with the area of the same compound made fully soluble in 10% acetic acid. Appearance of the solution was evaluated visually according to the following criteria: clear, very slightly opalescent, slightly opalescent, opalescent or precipitated.

[5] = in more than half of the participants; cited from earlier work

CCCCCCCCCCCCCCCCCC(=O)NCCCCOn1c(CCCC)nc2c(N)nc3ccccc3c21 [3M-052]
Clinical adverse events [1]: induction of adverse events related to cytokine release syndrome
Impact on body weight over time [2]: pronounced loss in body weight
Systemic release of the drug [3]: systemic release of the drug after administration of this formulation was still observed
Antitumoral activity (median tumor volume) (CT26 cells): comparable

CCCCc1nc2c(N)nc3ccccc3c2n1Cc1ccc(CNC(=O)COCC(=O)NCCOCCOCCOCCC(=O)NCCCC[C@H](NC(=O)[C@H](CC(C)C)NC(=O)[C@H](CCCNC(=N)N)NC(=O)[C@H](CCCNC(=N)N)NC(=O)[C@H](CC(C)C)NC(=O)[C@H](CC(C)C)NC(=O)[C@H](C)NC(=O)[C@H](C)NC(=O)[C@H](Cc2c[nH]cn2)NC(=O)[C@H](CC(C)C)NC(=O)[C@H](C)NC(=O)[C@H](CC(C)C)NC(=O)[C@H](Cc2c[nH]cn2)NC(=O)[C@H](C)NC(=O)[C@H](C)NC(=O)[C@H](CC(C)C)NC(=O)[C@H](CC(C)C)NC(=O)[C@H](CCCNC(=N)N)NC(=O)[C@H](CCCNC(=N)N)NC(C)=O)C(N)=O)cc1 [AH-12, Ac-RRLLAAHLALHAALLRRLK(ADJ12)-NH2] (Ac-RRLLAAHLALHAALLRRLK([PEG3-X1])-NH2)
Solubility/appearance across buffer conditions [4]: change in appearance and/or HPLC solubility
HPLC solubility ([4]; pH 5.2, NaCl 154 mM): >98% HPLC
HPLC solubility ([4]; pH 5.2, no NaCl): >98% HPLC
HPLC solubility ([4]; pH 7.5, NaCl 154 mM): 90% HPLC
HPLC solubility ([4]; pH 7.5, no NaCl): >98% HPLC

CCCCOc1nc(N)c2[nH]c(=O)n(CCCN(CCCN3CCOCC3)Cc3cccc(CC(=O)OC)c3)c2n1 [AZD8848]
Clinical safety issues from systemic interferon signaling [5]: significant influenza-like symptoms

CCCCc1nc2c(N)nc3ccccc3c2n1Cc1ccc(CNC(=O)COCC(=O)NCCOCCOCCOCCC(=O)NCCCC[C@H](NC(=O)[C@H](CC(C)C)NC(=O)[C@H](CCCNC(=N)N)NC(=O)[C@H](CCCNC(=N)N)NC(=O)[C@H](CC(C)C)NC(=O)[C@H](CC(C)C)NC(=O)[C@H](Cc2c[nH]cn2)NC(=O)[C@H](C)NC(=O)[C@H](Cc2c[nH]cn2)NC(=O)[C@H](CC(C)C)NC(=O)[C@H](C)NC(=O)[C@H](CC(C)C)NC(=O)[C@H](Cc2c[nH]cn2)NC(=O)[C@H](C)NC(=O)[C@H](Cc2c[nH]cn2)NC(=O)[C@H](CC(C)C)NC(=O)[C@H](CC(C)C)NC(=O)[C@H](CCCNC(=N)N)NC(=O)[C@H](CCCNC(=N)N)NC(C)=O)C(N)=O)cc1 [HH-12, Ac-RRLLHAHLALHAHLLRRLK(ADJ12)-NH2] (Ac-RRLLHAHLALHAHLLRRLK([PEG3-X1])-NH2)
Solubility/appearance across buffer conditions [4]: change in appearance and/or HPLC solubility
HPLC solubility ([4]; pH 5.2, NaCl 154 mM): >98% HPLC
HPLC solubility ([4]; pH 5.2, no NaCl): >98% HPLC
HPLC solubility ([4]; pH 7.5, NaCl 154 mM): 55% HPLC
HPLC solubility ([4]; pH 7.5, no NaCl): >98% HPLC

CCCCc1nc2c(N)nc3ccccc3c2n1Cc1ccc(CNC(=O)COCC(=O)NCCOCCOCCOCCC(=O)NCCCC[C@H](NC(=O)[C@H](CC(C)C)NC(=O)[C@H](CCCNC(=N)N)NC(=O)[C@H](CCCNC(=N)N)NC(=O)[C@H](CC(C)C)NC(=O)[C@H](CC(C)C)NC(=O)[C@H](Cc2c[nH]cn2)NC(=O)[C@H](C)NC(=O)[C@H](CC(C)C)NC(=O)[C@H](CC(C)C)NC(=O)[C@H](C)NC(=O)[C@H](CC(C)C)NC(=O)[C@H](CC(C)C)NC(=O)[C@H](C)NC(=O)[C@H](Cc2c[nH]cn2)NC(=O)[C@H](CC(C)C)NC(=O)[C@H](CC(C)C)NC(=O)[C@H](CCCNC(=N)N)NC(=O)[C@H](CCCNC(=N)N)NC(C)=O)C(N)=O)cc1 [HL-12, Ac-RRLLHALLALLAHLLRRLK(ADJ12)-NH2] (Ac-RRLLHALLALLAHLLRRLK([PEG3-X1])-NH2)
Solubility/appearance across buffer conditions [4]: change in appearance and/or HPLC solubility
HPLC solubility ([4]; pH 5.2, NaCl 154 mM): >98% HPLC
HPLC solubility ([4]; pH 5.2, no NaCl): >98% HPLC
HPLC solubility ([4]; pH 7.5, NaCl 154 mM): 0% HPLC
HPLC solubility ([4]; pH 7.5, no NaCl): >98% HPLC

CCCCc1nc2c(N)nc3ccccc3c2n1Cc1ccc(CNC(=O)COCC(=O)NCCOCCOCCOCCC(=O)NCCCC[C@H](NC(=O)[C@H](CC(C)C)NC(=O)[C@H](CCCNC(=N)N)NC(=O)[C@H](CCCNC(=N)N)NC(=O)[C@H](CC(C)C)NC(=O)[C@H](CC(C)C)NC(=O)[C@H](CCCCN)NC(=O)[C@H](C)NC(=O)[C@H](CCCCN)NC(=O)[C@H](CC(C)C)NC(=O)[C@H](C)NC(=O)[C@H](CC(C)C)NC(=O)[C@H](CCCCN)NC(=O)[C@H](C)NC(=O)[C@H](CCCCN)NC(=O)[C@H](CC(C)C)NC(=O)[C@H](CC(C)C)NC(=O)[C@H](CCCNC(=N)N)NC(=O)[C@H](CCCNC(=N)N)NC(C)=O)C(N)=O)cc1 [KK-12, Ac-RRLLKAKLALKAKLLRRLK(ADJ12)-NH2] (Ac-RRLLKAKLALKAKLLRRLK([PEG3-X1])-NH2)
Solubility/appearance across buffer conditions [4]: remains soluble
HPLC solubility ([4]; pH 5.2, NaCl 154 mM): >98% HPLC
HPLC solubility ([4]; pH 5.2, no NaCl): >98% HPLC
HPLC solubility ([4]; pH 7.5, NaCl 154 mM): >98% HPLC
HPLC solubility ([4]; pH 7.5, no NaCl): >98% HPLC

CCOCc1nc2c(N)nc3ccccc3c2n1CC(C)(C)O [R848, 1-(4-amino-2-(ethoxymethyl)-1H-imidazo[4,5-c]quinolin-1-yl)-2-methylpropan-2-ol]
Impact on body weight over time [2]: pronounced loss in body weight
Antitumoral activity (median tumor volume) (CT26 cells): comparable

CCCCc1nc2c(N)nc3ccccc3c2n1Cc1ccc(CNC(=O)COCC(=O)NCCOCCOCCOCCC(=O)NCCCC[C@H](NC(=O)[C@H](CC(C)C)NC(=O)[C@H](CCCNC(=N)N)NC(=O)[C@H](CCCNC(=N)N)NC(=O)[C@H](CC(C)C)NC(=O)[C@H](CC(C)C)NC(=O)[C@H](Cc2c[nH]cn2)NC(=O)[C@H](C)NC(=O)[C@H](CC(C)C)NC(=O)[C@H](CC(C)C)NC(=O)[C@H](C)NC(=O)[C@H](CC(C)C)NC(=O)[C@H](CC(C)C)NC(=O)[C@H](C)NC(=O)[C@H](Cc2c[nH]cn2)NC(=O)[C@H](CC(C)C)NC(=O)[C@H](CC(C)C)NC(=O)[C@H](CCCNC(=N)N)NC(=O)[C@H](CCCNC(=N)N)NC(=O)[C@@H](N)CCCCNC(C)=O)C(N)=O)cc1 [kHL-12, K(Ac)—RRLLHALLALLAHLLRRLK(ADJ12)-NH2] (H-K(Ac)RRLLHALLALLAHLLRRLK([PEG3-X1])-NH2; N-terminus and C-terminus assumed)
Impact on body weight over time [2]: limited impact on the body weight

K(Pam)-RRLLHALLALLAHLLRRLK(ADJ12)-NH2 (K(Palmitoyl)RRLLHALLALLAHLLRRLK(ADJ12)-NH2; reading uncertain; also: printed as K(Pam)-RRLLHALLALLAHLLRRLK(ADJ12)-NH2) [pHL-12]
Antitumoral activity (median tumor volume) (CT26 cells): lower level of antitumor activity
